From a protein production outcome set (Wang et al. 2014)

Assay: label from the status in PepcDB records

| Sequence | protein production |
| --- | --- |
| MSAGKIDVHGFEKETLFFKNIASGSKGNCTLIWDSTDLIVIDLGITMKKFRDSIKSLDLAGRSISLFISHEHSDHIGGVPTTSKYVDMDVYMRPALSGSFRRKTYEMDGSLVVGNFEIRAFEIPHDAADPVGFSVLWHNRKISVVSDLGKVTDRVIESIRNSDILAFESNHDVEMLRTGSYPEALKRRILSDHGHLSNEQSAEAISRVATDDMRIILTHLSQENNRPEIALNEVKSYLENRNVRYRSIETADQYTGSSLYTLER | failed |
| MSSERVLSNARVVSAERVFVGSVLLRDGLIAAVDEGRSHLAGAEDLGGDYLLPGLVELHTDNLEKHMTPRPGVDWPSASAVLAHDAQIVSAGITTVFDALSIGDVNPKGKRMQQLPKMLEAIGEAAASGDARADHRLHLRCEVSHPQTLEVFRELVEHPLVQLVSVMDHAPGQRQFARLEKYREYYQGKYHLSDAEMDAFIVEQVANSERYSDAARAAIVDVCQGRGLSVASHDDATLAHVRESAGYGMAIAEFPTTVEAARASHEHGLQVLMGAPNVVRGGSHSGNVAAAQLAGIGVLDILSSDYYPASLLHAALLLAGEHSEYDAIRYDLPRAVAMVSRTPALAAGLTDRGEIRVGLRADLLQARALGNNQPVVRQVWRGGQRVF | failed |
| SGILFMSKVGLRGDRRSEGDEVLDPLRQALDSSMQSHNLYQHPQHLAFHVSAPVASTVQQASGLLGPLPHLSSFALQPAHSLLPPLGSHGAGFQENGAKAES | not failed |
| MNAIREGVRALCAEFDAAYWRRIDEQRGFPEAFVKALTDAGWLSAMIPEEYGGSGLGLAEASVILEEVNRCGGNSGTVHGQMYNMFTLLRNGSEAQKRFYLPKLASGELRLQSMGVTEPTTGTDTTKIKTTAVRKGDRYVINGQKVWISRIQHSDLMILLARTTPLAEVKRKSEGMSIFLVDLREAIGKGLTVQPIANMVNHETNELFFDNLEIPADSLIGEEGKGFRYILDGLNAERTLIAAECIGDGRWFIDKASHYARDRVVFGRPIGQNQGVQFPIAEAHIEVEAADLMRWRACQEYDAGLNAGASANMAKYLAAKASWEAANACLQTHGGFGFACEYDVERKFRETRLYQVAPISTNLILSYVAEHLLELPRSF | failed |
| MTVNMTKGQAISLQKNDGGTLTAVRMGLGWQAAPRRGLFGSRTREIDLDASAVLFADKQPVDVVFFRHLVSDDGSVRHTGDNLVGGVGQGGDDEAILVDLQRLPVHIDQIVFTVNSFTGQTFQEVQNAFCRLVDETNGEELARYTLAGGGQYTAQIMAKVHRAGAGWQMTALGTPSNGRTFQDLMPAILPHL | failed |
| MSLSQEMIKKWLDEEGFLRMEVPDENARFHYVVNYPEDHVIDIIQPAGKDDMILIACATSVSPEHQAGIRALSMEKRTEFIWKVRFTLNRFGVDFQLDHPENVLNSYLVTDEIFFDGLSKDRLISSIKNVFRAKLQVMWMIQERFGEERPEHDSMYVEGHHHHHH | not failed |
| MSVTFSYLAETDYPVFTLGGSTADAARRLAASGCACAPVLDGERYLGMVHLSRLLEGRKGWPTVKEKLGEELLETVRSYRPGEQLFDNLISVAAAKCSVVPLADEDGRYEGVVSRKRILGFLAERI | not failed |
| MASTIYTCKECGSDLNLNPNDLFPPDFYFEAGNKGTLSFAAVDAEKFRFEKEDKIMPFFETLNYWGIQRKRTKIKCTSCNHLIGYIYDDGPPLTGGIGQYGFGPSQVIPRAPRYRFKTKARQDGWQYGGLTAFWN | failed |
| MSQERTDGDLRNTGLSLKHDREWDYELDRIVEAVEERDAEKVGLQFPEGLKRRGPAVADDLREELPDDVTVLLSGQPCYGACDLDTYMMRRTDVFVHFGHSPMKESDKIIYVPLFSNVDVFPIMEQAREEQLADPEDDPDVGLVTTAQHMNKFDEMREWLEERGYTVHTRRGDERLTHEGQVLGCNYASADVDADQMLYVGGGKFHPLGLAMEHPEKHVVIADPVNNVVTVADTEKFMKQRYGAVHRAMDAESWGVIFCTKIGQGRWDQAEEIVENNENAYLITMDEVTPDRLTNFGMDAYVNTGCPRITTDDGPQFKKPMLTPGEYEIAIGEKPLDSLEFDTFHGTWLEHHHHHH | not failed |
| MEVERKIVSLEALYIVYDADGTVAGELLYLLRKWLGKGHCAACDITHGPRKVKPEWTILQKTGWLGVPLFNIHRDEMEPKLRSAVSCALPCVAALVDNGDYVLLLQPEDLESCKGQVSKLQEKIVEALKDFGFQVNESFTSVVTSDLSDTCPSTLDREKEEDDAVVPF | failed |
| MRRQPKTRQESARMSIEAPETVVVSTWKVACDGGEGALGHPRVWLSIPHETGFVECGYCDRRYIHESFAAAKLEHHHHHH | not failed |
| MKQNQQNKKSFEVQLTQLFLFTSLPLFFLLIGVMIYANISLYLILLTMLISSLVIVYSHSKLHQKSAYQFRSLSNLLDAMVQGDYSLRARISDGDEALNELVDSINSLSLRLNKQRIETTESQLLLTTVINHIDVAILALNENNELVLTNPAAKKLLQIPAEQQEFDLIESFSQFSQIAAMNSGNSQVMSLYFANQQGKFNVHLEEYRENGKPQKLVFITDVSTMLRSEERNAWQALVRVISHEINNSLSPIASISQSLRRLLARQEKLENHKEYLVEGLSIISQRSNSLTEFVNSYKQIASLPEPKKQPSSVLELVNKTVALYPDECIEVQNIDDITLVLDAVQFEQVLINLVKNAVEAVKSAGEAGKVAISGQVNGKVFSLSLADDGTGVSNLENLFVPFYSTKSKGSGIGLVLCRQIIEAHGGKITLTNRLGVSGCIATIELPL | failed |
| MFVRRFEEVLALPTAMTALLGCQLLGELIVRALHLPIPGPVLGLLLLLAWLLLGTTVTLPVSSSLPEVARGLLNHMSLLFIPAGVGIILHGQTLADQWLPISVSLFGSTALALIATALTFRAVCKIMERSKAKKEGGR | failed |
| LTLRSVFQPIFDKQHQVVGAEALVRIFTQHHTQIRPDLFFHSETFADDDKLNVERLSRAIHIRNFSLSPYRDTRLFLNVLPVAGEQFAYCDISSTLLATRLAELNIPHHRVVMELVEIESGDEGMLQMATEKLVANGFQIAIDDFGCKASTPERVAMLRPNIIKLDRQLLLDFMAGDCCGLLAGVQLAQKTGAHTVVEGIETAEQLAAMQKLDINMYQGYYLALP | failed |
| LQQQEEETYADACDEFLDPIMSTLMCDPVVLPSSRVTVDRSTIARHLLSDQTDPFNRSPLTMDQIRPNTELKEKIQRWLAERKQQ | not failed |
| MAMNLPADNEGKIKLAMSILVTIINDTGVPRNIRRAAANALTHLRDPRLSPAVRAANAISALEEVSQDPNMPFYARTRIWQVITILETVRD | failed |
| MNALGTKARVVGTGVLVLGLLSGCTTAAPSPSSPTPTQATPTQAASSNAGPGPASSAAVPAQQSAEAKLSPEAQIETDRLLILAAKANDAAKVRELIAAGGNVNAKDEIQDSAFLYAGAEGFNEVLQLTLAAGADVRSTNRYGGTALIPASEHGHTETVRILIAAGVPVDHVNNLGWTAMQEAILPNNGGPNQQDVVRQLLAAGATPDIRDPQGRTALQNAERLGFTEIAALIRNR | failed |
| MTVIIAGERSGAGKTTITLAMLAYLARQKLRVQSFKVGPDYIDPMFHSQITGRPCRNLDPFLTSEAYVQRCFHYHSQGTPYSLIEGVMGLFDGVPYQGLTDYSSTAHIARLLNLPIVFVMDCQRLSGSVAAIVQGYRHWQPGVNLVGVILNRVGGDRHLELLKIALEPLRIPILGVFFRQQDLTLPDRHLGLVPCGELPQIQQYFDQLAHVAAQQLDWPKLLPLLETPRNLPSPMSLFDVPQKSPQARLAIAQDQAFNFYYADNLDLLTHCGFELIPFSPLEDTELPPAIDGVYLGGGFPELFAEQLSQNQALKDQLKTLIHQGLPTYGECGGLMYLSQSLTNFEGQIFPMLEMLPTAVTMGGKLSLGYRQAQVVNSHSWLWQTESLRGHEFHRSQMTKLPNQALYRQRGLLAIDQNTTDGWCVGSVQASYLHLHWGSQISTVEKFRAACLAFQKKLSYLGKHPPFKSVPLRNTGGDAHGRE | failed |
| MVRGDDQLNGLQGGKRALDILCVATERTVSAFAYEEIGETSTEGDKRRERLRRLRRLINYSLSTTMNSSLSKRLKIDECKNQDPEQNPNRVASSPSSCHLESKRPQKVVSNKPVRNRKPVIVTDEDRTPTEWLIDVMREVNGMDAKLIFVKVLPNSDVDELQTRLMMPWKQILDMDFLNEEELEKIDRHHKKISASDKGADVIVVNSKGLQRKLKLKRWDMTSTSNYVLGLGWNKVVTDNILQRGTRLRIWSFHSPDMLFFAFVLSDPDPAPTECLNLLAKLCEETTCLEALQEANRMSSLVSDTELDLELRL | failed |
| ALSDGVHKIEFEHGTTSGKRVVYVDGKEEIRKEWMFKLVGKETFYVGAAKTKATINIDAISGFAYEYTLEINGKSLKKYMEDRSKTTNTWVLHMDGENFRIVLEKDAMDVWCNGKKLETAGEFVDDGTETHFSIGNHDCYIKAVSSGKRKEGIIHTLIVDNREIPEIAS | failed |
| MRNLIISAALVAASLFGMSAQAAEPIESGKQYVELTSAVPVAVPGKIEVIELFWYGCPHCYAFEPTINPWVEKLPSDVNFVRIPAMFGGPWDAHGQLFITLDTMGVEHKVHAAVFEAIQKGGKRLTDKNDMADFVATQGVNKDDFLKTFDSFAVKGKIAQYKELAKKYEVTGVPTMIVNGKYRFDLGSAGGPEKTLQVADQLIDKERAAAKAAK | failed |
| MGRDYQSEALAEQHLREAHLLAPDHAAVLIGLYRFYFYKGRLGEALEVAQACLCKAARDNGLASDWRKVRRGDAEFSSYSAVLPRFYLFALKAYAYLQMRLGQLDEGHAAVEKLLELDPTDKVGAAVLLDVWRRIGLEHHHHHH | failed |
| MVNVFYEEAGALKVGSILTDNTTSLQIESAHGKRSKIKAALVLLRFENPPMHGFMQQAQEKAADIDVNFLWECCEENREFTGQELAGDYFGHTPDPLETAAILILLSQNPIYFHKKGVGRFKAAPPEILQAALASREKKRLAEEKQAGYVQQLMAFELPDTFRPLLDDLLYKPDKNTIEWKALETACDATRLSVPRLLERCGAIPSTHDYHYNQFLYEHFPEGIDTDAYPADFHLLDPEDLPVAGVKAFSIDDATTTEIDDAFSVTPLNFGSFRIGIHIATPALGVAPHSLLDKFAAKRLSTVYLPGRKITMLPESVIQHFTLGEAHHRPVLSLYLEVADDFTVTRTFSRIETIEVSTNLRLDSLERQFNEITLRENQTDYPFAHELRLLWNFSCKMEKLRGKDQDINSEKIDYSFIIDQDRVSVYERRRGAPIDKVVSELMIFANAEWGKQLADAGYAGIYRSQGNGKVKMSLSPAPHQGLGVSQYAWSSSPMRRYVDLINQRQLIALVSGNPPPYTREDDTLLIAMRDFEMAYATYAEFQRGMERYWCLRWLLQENISTSGAIVIKENMIKLDRLPLIVRIPSLPELAPGTLVAVGVSQIDLIDRSLNASFLGKSEG | failed |
| MSVYLVALIGILILGLYILDLRKHKITTREIIMIGLSVAISYVLYMIPLVRYPQGGGITFFSMLPIMLLSLVYGRTVGVTGGLIFGLLKILNGAFIVHPVQFLLDYILSNMALGLAGSFGIDKKYKIFLGSLMAGSISTFVSIVSGVIFFGQYAPPGMNLWIYSIIYNTSSAGVESLLTAIVITIMPIKMLAKRMKPINNI | failed |
